# From the supplement of paper PMC7125110
# ± gives the standard error. This sample holds only a part of the variants without activity.
# B1: glmS ribozyme (parent)
# chain: AUAAAAGCGCCAGAACUACAGAAAUGUAGUUGACGAGGAGGAGGUUUAUCGAAUUUUCGGCGGAUGCCUCCAAA
# Legend:
# Settings in all cases: with glucosamine-6-phosphate
# glucosamine-6-phosphate [1] = variants of: B1; assay: self-cleavage kobs at 40 uM GlcN6P; higher = faster cleavage; RNA array
# Procedure, shortened: (§1)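 Tracking of barcoded ribozyme variants used a hybridised Cy3 probe at 37 °C, after in situ transcription by E. coli RNA polymerase on sequenced MiSeq chips. The flowed solution held 40 μM to 10 mM glucosamine-6-phosphate in HEPES/KCl/Mg(OAc)2 buffer, and imaging ran over ~14 h. kobs was taken from exponential decay fits of normalised per-tile medians, and kcat and KM from weighted Michaelis–Menten fits.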
# glucosamine-6-phosphate [2] = variants of: B1; assay: self-cleavage kobs at 160 uM GlcN6P; higher = faster cleavage; RNA array
# Procedure, shortened: as §1
# glucosamine-6-phosphate [3] = variants of: B1; assay: self-cleavage kobs at 640 uM GlcN6P; higher = faster cleavage; RNA array
# Procedure, shortened: as §1
# glucosamine-6-phosphate [4] = variants of: B1; assay: self-cleavage kobs at 2500 uM GlcN6P; higher = faster cleavage; RNA array
# Procedure, shortened: as §1
# glucosamine-6-phosphate [5] = variants of: B1; assay: self-cleavage kobs at 10000 uM GlcN6P; higher = faster cleavage; RNA array
# Procedure, shortened: as §1
Variant,self-cleavage kobs at 40 uM GlcN6P (glucosamine-6-phosphate [1]) [s⁻¹],self-cleavage kobs at 160 uM GlcN6P (glucosamine-6-phosphate [2]) [s⁻¹],self-cleavage kobs at 640 uM GlcN6P (glucosamine-6-phosphate [3]) [s⁻¹],self-cleavage kobs at 2500 uM GlcN6P (glucosamine-6-phosphate [4]) [s⁻¹],self-cleavage kobs at 10000 uM GlcN6P (glucosamine-6-phosphate [5]) [s⁻¹]
C10U U46G,< 1e-05,< 1e-05,,,
A15U A64C,< 1e-05,< 1e-05,,,
U31A A64G,0.000322 ± 8.5e-05,0.000708 ± 0.0002,0.00331 ± 0.0006,0.00394 ± 0.0012,0.0255 ± 0.0096
C8G G29U G66U,< 1e-05,,,,
G9C U46C,< 1e-05,,< 1e-05,,< 1e-05
G60A U65C,< 1e-05,< 1e-05,,< 1e-05,< 1e-05
U55C G63A,< 1e-05,< 1e-05,,< 1e-05,< 1e-05
A12C A53U G62U,< 1e-05,,,,< 1e-05
G32C G38C G60C C67G,< 1e-05,,< 1e-05,,< 1e-05
C8A U45C,< 1e-05,,< 1e-05,< 1e-05,
C61A G62C,< 1e-05,< 1e-05,< 1e-05,,< 1e-05
G7C C34U G35A G37U A42U G43U C71A,< 1e-05,,< 1e-05,,
A6G G43U C67U,< 1e-05,< 1e-05,< 1e-05,,< 1e-05
U47C C58U C71U,< 1e-05,,,,3.48e-05 ± 1.1e-05
G40A C71A,0.00036 ± 4.6e-05,0.000678 ± 0.00011,0.00251 ± 0.00036,0.00849 ± 0.0017,0.0185 ± 0.0049
A53U G59C,< 1e-05,< 1e-05,< 1e-05,< 1e-05,< 1e-05
A33U C58U C71A,< 1e-05,,< 1e-05,< 1e-05,
G43A G62C,< 1e-05,,,< 1e-05,< 1e-05
G40U A42U C61A,< 1e-05,,,,< 1e-05
A14U U55A,0.000252 ± 3.9e-05,,,,0.00696 ± 0.0011
U30A A48U,< 1e-05,,,,4.05e-05 ± 1.5e-05
U31G A36C C61U,< 1e-05,,,,< 1e-05
C8A G26U A33C,< 1e-05,,,,

Variant,self-cleavage kobs at 40 uM GlcN6P (glucosamine-6-phosphate [1]) [s⁻¹],self-cleavage kobs at 160 uM GlcN6P (glucosamine-6-phosphate [2]) [s⁻¹],self-cleavage kobs at 640 uM GlcN6P (glucosamine-6-phosphate [3]) [s⁻¹],self-cleavage kobs at 2500 uM GlcN6P (glucosamine-6-phosphate [4]) [s⁻¹],self-cleavage kobs at 10000 uM GlcN6P (glucosamine-6-phosphate [5]) [s⁻¹]
C8G C68G,< 1e-05,< 1e-05,,,< 1e-05
G41C A48C,< 1e-05,,< 1e-05,< 1e-05,< 1e-05
G9A U57G,< 1e-05,< 1e-05,< 1e-05,< 1e-05,
G9U G66A,< 1e-05,< 1e-05,< 1e-05,,< 1e-05
C11U G29U C34U A53U U56A,< 1e-05,,,< 1e-05,
G9C A39G G40U U49C,< 1e-05,,,,< 1e-05
G51C A64G C68A,< 1e-05,,,,< 1e-05
G44A A52C,< 1e-05,< 1e-05,< 1e-05,< 1e-05,< 1e-05
A12G C50G C58U,0.000139 ± 4.9e-05,,,,3.85e-05 ± 1.8e-05
C61U G62C,< 1e-05,,< 1e-05,< 1e-05,< 1e-05
A6U G62C,< 1e-05,,< 1e-05,< 1e-05,
A39G G51U,< 1e-05,< 1e-05,< 1e-05,< 1e-05,< 1e-05
A64G C68U,< 1e-05,< 1e-05,,2.62e-05 ± 9e-06,3.13e-05 ± 9.2e-06
A42G G44U,< 1e-05,< 1e-05,,,3.58e-05 ± 1.2e-05
G7U G40A,< 1e-05,,,,
C50G U54G G60A C70G,< 1e-05,,< 1e-05,,
G35A A36G A48G A53G,< 1e-05,,,,< 1e-05
G37A G44U U65G,< 1e-05,< 1e-05,< 1e-05,,< 1e-05
G38C U65G G66A,< 1e-05,< 1e-05,< 1e-05,< 1e-05,
A36G C50U U57A,< 1e-05,,,,< 1e-05
G9C C70A,< 1e-05,< 1e-05,< 1e-05,,< 1e-05
A48C A64U,< 1e-05,< 1e-05,< 1e-05,,
A15C G35A G51A C68A,< 1e-05,,< 1e-05,,< 1e-05

Variant,self-cleavage kobs at 40 uM GlcN6P (glucosamine-6-phosphate [1]) [s⁻¹],self-cleavage kobs at 160 uM GlcN6P (glucosamine-6-phosphate [2]) [s⁻¹],self-cleavage kobs at 640 uM GlcN6P (glucosamine-6-phosphate [3]) [s⁻¹],self-cleavage kobs at 2500 uM GlcN6P (glucosamine-6-phosphate [4]) [s⁻¹],self-cleavage kobs at 10000 uM GlcN6P (glucosamine-6-phosphate [5]) [s⁻¹]
A12C C34G G40U A52U C61U,< 1e-05,,,,< 1e-05
A15C C16U U57A G66C,< 1e-05,,,,< 1e-05
G32U G63A C67U,< 1e-05,,,< 1e-05,< 1e-05
A15U G29C G43C,< 1e-05,,,,
G26U U31G G44U C50U,< 1e-05,,,< 1e-05,< 1e-05
G9C A33U,< 1e-05,< 1e-05,< 1e-05,< 1e-05,< 1e-05
A48U U55G G62C,< 1e-05,,< 1e-05,,< 1e-05
C8G U31G,< 1e-05,< 1e-05,< 1e-05,< 1e-05,
C8U,< 1e-05,< 1e-05,< 1e-05,< 1e-05,
A36C G41A G43A,< 1e-05,,,,
G41A C61U C68A C70G C71A,< 1e-05,,,,
G7U A14U U55C G63U C70A,< 1e-05,,< 1e-05,< 1e-05,
C34A U54C C61G,< 1e-05,< 1e-05,,,
A12C C71A,6.84e-05 ± 9.7e-06,,0.000423 ± 6.6e-05,0.00201 ± 0.0003,0.00229 ± 0.00033
U49C G63A,< 1e-05,< 1e-05,,,< 1e-05
C8G U65A,< 1e-05,,,,
A14C U54A,0.00014 ± 2.7e-05,,0.00123 ± 0.00021,0.0023 ± 0.0005,0.00985 ± 0.0024
A6G C8G G40A,< 1e-05,,,,< 1e-05
C8U U57C,< 1e-05,< 1e-05,< 1e-05,< 1e-05,< 1e-05
A12U A39G,0.00377 ± 0.00072,0.00677 ± 0.0016,0.0284 ± 0.013,0.0119 ± 0.0036,0.105 ± 0.045
G29A A39C G59U,< 1e-05,,,,
U46G C50G,4.21e-05 ± 9.2e-06,7.37e-05 ± 1.5e-05,4.09e-05 ± 1.3e-05,,2.21e-05 ± 7.3e-06
G44U G66U U69G,< 1e-05,,,,

Variant,self-cleavage kobs at 40 uM GlcN6P (glucosamine-6-phosphate [1]) [s⁻¹],self-cleavage kobs at 160 uM GlcN6P (glucosamine-6-phosphate [2]) [s⁻¹],self-cleavage kobs at 640 uM GlcN6P (glucosamine-6-phosphate [3]) [s⁻¹],self-cleavage kobs at 2500 uM GlcN6P (glucosamine-6-phosphate [4]) [s⁻¹],self-cleavage kobs at 10000 uM GlcN6P (glucosamine-6-phosphate [5]) [s⁻¹]
C50G C58G,8.56e-05 ± 1.3e-05,0.000155 ± 2.6e-05,0.000235 ± 5.2e-05,6.82e-05 ± 1.8e-05,
A33C U45C,< 1e-05,,,,4.65e-05 ± 1.3e-05
A33C A36C,< 1e-05,,,< 1e-05,
A53G G62A C67U,< 1e-05,,,,
G9A G59U A64U U65C,< 1e-05,,,,< 1e-05
G38U U56G,< 1e-05,,,< 1e-05,< 1e-05
G38A G41U,< 1e-05,< 1e-05,< 1e-05,,< 1e-05
U46A G60U,< 1e-05,< 1e-05,,< 1e-05,
A6U C16U U30C,< 1e-05,,,,
A36G G41A G51C C61G C67U,< 1e-05,,,,< 1e-05
G38U U45C,< 1e-05,< 1e-05,< 1e-05,< 1e-05,< 1e-05
A14C U56G,0.00282 ± 0.00046,0.00922 ± 0.003,0.0201 ± 0.0065,0.00838 ± 0.0029,0.0693 ± 0.022
A36C G59A C67A,< 1e-05,,,,< 1e-05
G35A A52G,< 1e-05,,,< 1e-05,< 1e-05
U31C A39U C68A,< 1e-05,,< 1e-05,,
A12C G62U,< 1e-05,< 1e-05,< 1e-05,< 1e-05,< 1e-05
G9C A52U,< 1e-05,< 1e-05,< 1e-05,< 1e-05,< 1e-05
G38U U55C C67G,< 1e-05,,< 1e-05,,
A14U A39C U49A,< 1e-05,,,,
C16U A33U G51C,< 1e-05,,,,
G35U G37C U56G,< 1e-05,,< 1e-05,< 1e-05,
U31A G59A G62A,< 1e-05,,,,
